Measured values published in the supplement of paper PMC9170038.

Tested on: K4 kissing-loop RNA reporter
Test: apparent KD of K4 kissing-loop reporter; higher = weaker reporter binding
Details: Eterna round: R107
Description: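 RNA-MaP round R107: designed RNA switches with theophylline, tryptophan, arginine or FMN aptamers are transcribed on-chip within common flanks. They are titrated with a labelled K4 kissing-loop RNA reporter in RNA-MaP buffer (100 mM Tris pH 7.5, 80 mM KCl, 4 mM MgCl2), without ligand or with the indicated ligand. Median apparent KD per design.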

[1] = input ligand: theophylline 20 uM
[2] = input ligand: tryptophan 2.4 mM
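Further: bound reporter read as fluorescence of individual clusters on recovered sequencing chips by microscopy, with normalized cluster intensities fitted with a binding model.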

Sequence | apparent KD of K4 kissing-loop reporter (input ligand: FMN 200 uM) | apparent KD of K4 kissing-loop reporter (input ligand: arginine 13.2 mM) | apparent KD of K4 kissing-loop reporter (input ligand: none) | apparent KD of K4 kissing-loop reporter [1] | apparent KD of K4 kissing-loop reporter [2]
GUUGAUCAUGGAAGGAGCGCCCAUUGUCGACACGAGUGAUGUUCGUGUCGUUAAUUAUGAGGGCAGGUAGGUCGCCGUGUGCUUU [Soqugebi] | 144 nM | 103 nM | 130 nM | 115 nM | 128 nM
UAAAUAAAAUCCUAGUGAUGUUAGGAUAUGUAGGAUAUCGGGAUACCGAGAAGGACAGAAGGAGGAGUGAUGUUCCUCAAUAAAU [FmnAX 30 #DoubleAptamer #DoubleK4 #OpenEnded] | 72 nM | 72.1 nM | 59.3 nM | 74.5 nM | 59.5 nM
UAAGACAUGAAAGGAUAUCCGAUAUGGAGCCUUUAGUGAUGUUAGGAGCUAGCCGUAGACAAGAUCGGAGAAGGUUCAACCCACA [theeternabot_sameState_KL_FMN_B_13] | 787 nM | 506 nM | 646 nM | 705 nM | 640 nM
UAAUAUCCGUCGGCCGCCACUCACUAGUGAUGUUAGAGGAGUGAUGUUCCACGAGUGAUGUUCGAGAGGACCGGGACGGACGAUG [7th] | 75.1 nM | 60 nM | 65.3 nM | 56.6 nM | 54.9 nM
UAAUCUAACGAGAGUGAUGUUCUCGUCACAGAGGAUAUACGAUUUAGUAGAAGGCUGUUGGAUUCGCUUAAUGAUGACUAGAUUA [FMN A SS t1] | 242 nM | 196 nM | 223 nM | 232 nM | 205 nM
UACUAUAUUCUGUCGUUUUUAUUAGUUUGUCAGGAUAUCGUUUAUUCGAGAAGGGACACUAUCUAGUGAUGUUAGAUAUUUCUUU [JR_Nu3_ExcFMNA_Sub030] | 77.9 nM | 102 nM | 92.7 nM | 93.2 nM | 72.9 nM
UAGAAGAGAAGCGAUACCAGCGAAUGAAGAAGAUGAUGAAGCCAGUGAUGUUGGAAAGAACGCCCUUGGCAGCGCAAGAGAAGAU | 119 nM | 163 nM | 107 nM | 175 nM | 83.2 nM
UAGAUAAUGUAAGAUUAUGAUAAUUGGGAAGGAGCGCGGAAAUUCGCAGGUAGGUCGCCCUAUAAAGUAGUACGAGUGAUGUUCG [6.)] | 217 nM | 205 nM | 281 nM | 305 nM | 261 nM
UAGGGCAUCGCAGGAUAUCCUGCUUAACGUUGGAUUCCAGUGAUGUUGGAAAGUCGGCCUAGGGUAGGAGAAGGGCGAACUUGAA [Maxean] | 172 nM | 157 nM | 194 nM | 195 nM | 98.1 nM
UAUACGAAGCAGUGAUGUUGCUUAUGAGAAGGAGCGCACGAAAGUGCAGGUAGGUCGCUCAGCCAUGUGGACGAAAACGUCCACA [whbob_SS_Arginine_A_sa110] | 108 nM | 130 nM | 109 nM | 137 nM | 93 nM
UAUAGAGUGACGGCCGCCACUAUUGUGAUUUAAUUGUUUGAGUGAUGUUUUGAUGUUUGAUUUUGUAGGACCGGGUUAUAUGUUA [zdzzmullin] | 959 nM | 718 nM | 987 nM | 793 nM | 788 nM
UAUAUAGUGAUGUUAUAUGGGAAGGAGUUACGAGGACCGGUACGGCCGCCACUCGAAACGAGUGAGGAUUUGGGAGAUUGGGUUU [SSTryptA.S] | 333 nM | 211 nM | 206 nM | 208 nM | 232 nM
UAUGAAGGUGGAGGAUAUUGAUUGAGCCUUGGUCAGGAGUGAUGUUCCGGGAAGCCUUGGGUUCAUCGAGAAGGCCAAGGAUAGU [#09 K4 FMN B Same State] | 151 nM | 209 nM | 221 nM | 274 nM | 232 nM
UAUUAAUUGUCAGGAUAUCGUAUUCGAGUGAUGUUCGUAUAUCGACGAUAGUCGAUAUUAUCUAUACGAGAAGGGACAUUAUUUA [JR_SSFMNB_Sub006] | 418 nM | 334 nM | 477 nM | 341 nM | 379 nM
UAUUAAUUGUCAGGAUAUCGUAUUCGAGUGAUGUUCGUAUAUCGACGAUAGUCGAUUCUAUCUAUACGAGAAGGGACAUUAUUUA [JR_SSFMNB_Sub007] | 801 nM | 711 nM | 1090 nM | 804 nM | 755 nM
UAUUCUGUUCGAAAGAACGGAAUUUCGGAAGGAGCGAGAGAAAUCUCAGGUAGGUCGCCGAAAUUAUUAGAUAGUGAUGUUAUCU [Arginine A K4 4] | 162 nM | 110 nM | 135 nM | 177 nM | 158 nM
UCAGAGAACGAAGGAUAUUGACCUGUUUUAUGCUAUGAGUGAUGUUCUUAGUAUCAGCGAGAUGAUCAAGAAGGUCGGGUUCGAC [theeternabot_sameState_KL_FMN_B_48] | 125 nM | 174 nM | 197 nM | 183 nM | 152 nM

Sequence | apparent KD of K4 kissing-loop reporter (input ligand: FMN 200 uM) | apparent KD of K4 kissing-loop reporter (input ligand: arginine 13.2 mM) | apparent KD of K4 kissing-loop reporter (input ligand: none) | apparent KD of K4 kissing-loop reporter [1] | apparent KD of K4 kissing-loop reporter [2]
UCAUCAUGAUGGUAGUAACCGCAUUGGGAGCGAGGACCGGUACGGCCGCCACUCGAAAUGUACAUAGCAGUAGUGAUGUUGCUGC [theeternabot_sameState_KL_Trp_A_47] | 134 nM | 125 nM | 121 nM | 116 nM | 115 nM
UCAUGAAAGACGGCCGCCACUGAUGCUGGAGUGAUGUUUCGGACAUAGUAGAGUGAUGUUCUGCGCAGGACCGGGUCGUCAUGAA [KL-SSTryp-B10 #double Kiss] | 132 nM | 64.6 nM | 134 nM | 130 nM | 62 nM
UCCUACGAGGUAACGUGGAUAUCUCGUUGCAAGGAUAUCUGGAAACAGAGAAGGUGCAACAUUAUCGGCAGUGAUGUUGCUGACC | 711 nM | 242 nM | 482 nM | 385 nM | 280 nM
UCCUAGGCUCGAAAGAGCCUAGGUUAGACUCAGGAUAUCUGGAAACAGAGAAGGGAGCUACUAGUGAUGUUAGGAAUUCCCAUUU | 102 nM | 85.7 nM | 97.5 nM | 88.5 nM | 95.6 nM
UCCUAGGUUCGUCGGCGAAAGCCCUGCGAAGGAGCGUGCGAAAGUACAGGUAGGUCGCGCAGUGAUGUUGCACCUAGGUAAUAAA [#07 K4 Arginine A Exclusion] | 905 nM | 191 nM | 319 nM | 892 nM | 375 nM
UCCUGCAAUCCACCACGAAAGUGGAUGGAUACCAGAGUCGAAAGACUCCCUUGGCAGCCAGUGAUGUUGGAGCAGGUAAAAUAAA | 526 nM | 532 nM | 630 nM | 402 nM | 473 nM
UCCUGCAAUCGACCACGAAAGUGGAUCGAUACCAGAGUCGAAAGACUCCCUUGGCAGCGAGUGAUGUUCGAGCAGGUAAAAUAAA [#SwitchBubble 23 #K4Late] | 713 nM | 461 nM | 446 nM | 406 nM | 486 nM
UCCUGCAAUCGUCCACGAAAGUGGAUCGAUACCAGAGUCGAAAGACUCCCUUGGCAGCGAGUGAUGUUCGAAGCAGGUAAAUAAA | 487 nM | 387 nM | 466 nM | 548 nM | 391 nM
UCCUGCUGUCUGCCACGAAAGUGGAUUGAUACCAGAGUCGAAAGACUCCCUUGGCAGCGAGUGAUGUUCGAAGCAGGUAAAUAAA [MatMod 2 - Jieux - Exclusion - Theophylline A] | 210 nM | 215 nM | 234 nM | 220 nM | 188 nM
UCGAAGGAUGGAAGGAGCGCUCGUCAGUCCUGCGAGUGAUGUUCGUGGGUAAAUAGUCGCGAGCAGGUAGGUCGCCAUCUUGAGC [Laxe] | 139 nM | 102 nM | 114 nM | 126 nM | 109 nM
UCGAAGGAUGGAAGGAGCGCUCGUCAGUCCUGCGAGUGAUGUUCGUGGGUAAAUAUUCGCGAGCAGGUAGGUCGCCAUCUCGAAC [Erbemaa] | 149 nM | 103 nM | 141 nM | 122 nM | 117 nM
UCGCAAAAGUCGGCCGCCACUCCGGGCCCUAUAAAUGGGCGCAGUGAUGUUGCGGCUAGGCCUCUGAGGACCGGGACUUUGAAGA [Esesbior] | 101 nM | 25 nM | 23.9 nM | 102 nM | 131 nM
UCGCCAAAGUCGGCCGCCACUCCGGGCCCUAUAAAUGGGCGCAGUGAUGUUGCGGCUAGGCCUCUGAGGACCGGGACUUUGUAAA [Tiesgeza] | 119 nM | 85.2 nM | 68.9 nM | 32.5 nM | 133 nM
UCUGGAGCAUAUGAUACCAGCAGUGAGAGACAGGAAGUAUAGUGAUGUUAUAUGAGAGAAUGCCCUUGGCAGCGUGUGUAGUGGG [SSTheophylB.N] | 174 nM | 137 nM | 128 nM | 170 nM | 104 nM
UGACAUUGCUCAGAUACCAGACUUGAGGAUCACCCAAGUGCCAAAACGUACUAAAUAAAAGUCCCUUGGCAGCUGAGCAAUGUCU [TheoBX 13] | 49.2 nM | 45.9 nM | 40.6 nM | 88 nM | 54.1 nM
UGACUGGACUGAAGGAGCGAGCGAGACAAAGUCUCGAAAAUUCAGUGAUGUUGAUAUAUAACUCAGGUAGGUCGCAGUCUAGUCU [ArgBS 5 #SwitchBubble #StaticStem] | 447 nM | 433 nM | 477 nM | 464 nM | 431 nM
